This note sets out measurements from paper PMC8207215.

For assay [1], the target named is recombinant human insulin-regulated aminopeptidase (IRAP), secreted soluble form (human) (UniProt Q9UIQ6). The assay is described as follows: native gel or EMSA. (In general: In EMSA bound probe runs differently from free probe, usually more slowly.)
For assay [2] the target is unchanged. The assay is described as follows: SEC. A general note: SEC sorts molecules by how far they enter the pores of the column.
The target is the same in assay [3]. The assay is described as follows: enzyme inhibition assay.

Usually stoichiometry N stands for the number of molecules, sites or subunits per partner or assembly. As usually defined, the Ki is a dissociation constant, usually derived from enzyme kinetics or from competition with a known ligand.

Turning to “recombinant human insulin-regulated aminopeptidase (IRAP), secreted soluble form (from UniProt Q9UIQ6 155-1025) (enzyme)”, the stoichiometry N in assay [1] and in assay [2] was 2 throughout.

B1: peptide inhibitor VYPWT (peptide)
peptide: VYPWT
As to B1, the Ki in assay [3] came to 0.098 µM.
